# T1: Abz-GGFLRKHGQ-EDDnp (Rattus norvegicus, UniProt P35559)
# T1 construct: begin at methionine 42, which is believed to be the in vivo start site, and extend through the native C-terminal residue leucine 1019; hexahistidine with linker holding a TEV protease site (N, cleaved yes); made in house; host or cells: SF9 insect cells (baculovirus, pFastBac HTb)
# T1 sequence (P35559 42-1019): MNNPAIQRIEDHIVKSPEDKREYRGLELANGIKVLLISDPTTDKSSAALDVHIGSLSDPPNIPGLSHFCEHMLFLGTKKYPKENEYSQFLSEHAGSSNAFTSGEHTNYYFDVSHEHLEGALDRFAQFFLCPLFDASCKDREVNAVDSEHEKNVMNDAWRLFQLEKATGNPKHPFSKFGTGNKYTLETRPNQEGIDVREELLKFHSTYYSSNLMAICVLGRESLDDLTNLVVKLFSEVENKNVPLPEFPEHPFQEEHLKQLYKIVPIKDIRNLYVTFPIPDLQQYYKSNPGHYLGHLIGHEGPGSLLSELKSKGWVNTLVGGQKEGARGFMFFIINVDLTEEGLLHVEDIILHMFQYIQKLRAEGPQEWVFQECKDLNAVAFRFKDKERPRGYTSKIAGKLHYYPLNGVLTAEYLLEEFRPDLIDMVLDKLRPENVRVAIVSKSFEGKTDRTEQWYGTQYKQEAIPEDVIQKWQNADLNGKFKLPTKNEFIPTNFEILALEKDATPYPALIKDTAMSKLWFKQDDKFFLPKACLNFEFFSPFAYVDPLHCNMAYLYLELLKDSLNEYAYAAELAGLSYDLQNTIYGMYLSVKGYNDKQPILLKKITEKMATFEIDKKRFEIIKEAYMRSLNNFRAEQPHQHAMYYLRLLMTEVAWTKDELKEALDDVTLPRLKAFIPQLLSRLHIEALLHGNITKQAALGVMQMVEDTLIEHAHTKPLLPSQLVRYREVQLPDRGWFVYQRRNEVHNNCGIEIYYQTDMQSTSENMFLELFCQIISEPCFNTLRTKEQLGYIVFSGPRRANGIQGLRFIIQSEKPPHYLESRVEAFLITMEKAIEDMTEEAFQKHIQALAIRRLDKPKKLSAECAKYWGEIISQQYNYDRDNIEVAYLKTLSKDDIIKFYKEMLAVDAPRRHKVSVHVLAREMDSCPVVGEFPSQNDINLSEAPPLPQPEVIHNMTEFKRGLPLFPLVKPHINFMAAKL
# B1: IDE: Native rat insulin degrading enzyme (SEQ ID NO:1), expressed as hexahistidine fusion protein in Sf9 insect cells (protein, listed as Rattus norvegicus)
# chain: MRNGLVWLLHPALPSTLHSILGARPPPVKRLCGFPKQIYSTMNNPAIQRIEDHIVKSPEDKREYRGLELANGIKVLLISDPTTDKSSAALDVHIGSLSDPPNIPGLSHFCEHMLFLGTKKYPKENEYSQFLSEHAGSSNAFTSGEHTNYYFDVSHEHLEGALDRFAQFFLCPLFDASCKDREVNAVDSEHEKNVMNDAWRLFQLEKATGNPKHPFSKFGTGNKYTLETRPNQEGIDVREELLKFHSTYYSSNLMAICVLGRESLDDLTNLVVKLFSEVENKNVPLPEFPEHPFQEEHLKQLYKIVPIKDIRNLYVTFPIPDLQQYYKSNPGHYLGHLIGHEGPGSLLSELKSKGWVNTLVGGQKEGARGFMFFIINVDLTEEGLLHVEDIILHMFQYIQKLRAEGPQEWVFQECKDLNAVAFRFKDKERPRGYTSKIAGKLHYYPLNGVLTAEYLLEEFRPDLIDMVLDKLRPENVRVAIVSKSFEGKTDRTEQWYGTQYKQEAIPEDVIQKWQNADLNGKFKLPTKNEFIPTNFEILALEKDATPYPALIKDTAMSKLWFKQDDKFFLPKACLNFEFFSPFAYVDPLHCNMAYLYLELLKDSLNEYAYAAELAGLSYDLQNTIYGMYLSVKGYNDKQPILLKKITEKMATFEIDKKRFEIIKEAYMRSLNNFRAEQPHQHAMYYLRLLMTEVAWTKDELKEALDDVTLPRLKAFIPQLLSRLHIEALLHGNITKQAALGVMQMVEDTLIEHAHTKPLLPSQLVRYREVQLPDRGWFVYQRRNEVHNNCGIEIYYQTDMQSTSENMFLELFCQIISEPCFNTLRTKEQLGYIVFSGPRRANGIQGLRFIIQSEKPPHYLESRVEAFLITMEKAIEDMTEEAFQKHIQALAIRRLDKPKKLSAECAKYWGEIISQQYNYDRDNIEVAYLKTLSKDDIIKFYKEMLAVDAPRRHKVSVHVLAREMDSCPVVGEFPSQNDINLSEAPPLPQPEVIHNMTEFKRGLPLFPLVKPHINFMAAKL
# modifications: hexahistidine tag; wild-type Insulin Degrading Enzyme (IDE) from rat
# What was measured:
# Abz-GGFLRKHGQ-EDDnp [1] = target: T1, Abz-GGFLRKHGQ-EDDnp; experiment: Activation by bradykinin, wild type rIDE and distal site mutants; assay type: biochemical; conditions: 10 μM Abz-GGFLRKHGQ-EDDnp as substrate
# Procedure: FIG. 17. Effects of distal site mutations. (A) Comparison of the kinetics of wild type IDE with the distal site mutants. Activity was measured with varying amounts of Abz-[…]-EDDnp (SEQ ID NO:3) substrate as indicated. Either hyperbolic (Michaelis-Menten equation) or sigmoidal curves (Hill equation) were fit to the data. (B) Effect of bradykinin on the activity of wild type IDE and the distal site mutants. (C) Activation of wild type IDE and distal site mutants by ATP. Relative activity is the fold activation above the level of the wild type enzyme alone.
# The activity of IDE was measured by following the increase in fluorescence upon hydrolysis at the L-R bond of the fluorogenic peptide Abz-[…]-EDDnp (SEQ ID NO:3) on a SpectraMax Gemini XS fluorescence plate reader using an excitation wavelength of 318 nm and emission wavelength of 419 nm. Reactions were carried out in 200 μl volumes containing 50 mM Tris-HCl, pH 7.4, 1.92 μg of wild type rIDE, 4.6 μg of rIDE-V360S, 4.3 μg rIDE-I374S, or 1.63 μg of rIDE-Y609F. For measurements of activation by bradykinin, IDE activity was determined with 10 μM Abz-[…]-EDDnp (SEQ ID NO:3) as substrate in 50 mM Tris-HCl buffer, pH 7.4. The amount of protein was 0.5 μg for wild type rIDE and 5 μg for each of the IDE distal-site mutants. Data were analyzed using Softmax 4.0 (Molecular Devices) and kinetic parameters calculated with Prism (Graphpad Software). […]
# Abz-GGFLRKHGQ-EDDnp [2] = target: T1, Abz-GGFLRKHGQ-EDDnp; conditions: reference [15]; cited from earlier work
molecule,measurement,setting,value
B1,Heterotropic activation with bradykinin,Abz-GGFLRKHGQ-EDDnp [1],approximately 4 fold
same,increase of cleavage rate of Abz-GGFLRKHGQ-EDDnp by ATP,Abz-GGFLRKHGQ-EDDnp [2],more than 40 fold
